Values quoted from earlier work as cited in publication PMC7022251.

Target: Beclin-1 BH3 (UniProt Q14457)
UniProt Q14457, sequence (Q14457 105-130): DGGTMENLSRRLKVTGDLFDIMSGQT

Substance: M11 (from UniProt P89884)
- Kd: 40 nM
